# Results published in the supplement of paper PMC12042874.
# ± gives the uncertainty stated by the source.
# Assay: amyloid nucleation score (Sup35N fusion, yeast selection) (log enrichment); library NNK3; higher = more nucleation; inactive = no reads after selection
# Procedure, shortened: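 Sup35N was fused to peptides of 20 random codons and expressed in psi-negative yeast, which were induced with 100 μM copper sulfate for 24 hours and then grown on medium lacking adenine and uracil for 7 days at 30°C. Plasmid inserts from input and output were sequenced on Illumina. The nucleation score is the DiMSum log enrichment of output over input reads, centred on the mode score of non-aggregating sequences. Sequences with under 100 input reads were left out, and random libraries had three technical output replicates.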
row,Substance,amyloid nucleation score
1,VIVYLFICNADLYFYKMSDF,1.72 ± 0.12
2,TVRYVVSASTWHMSLQSPTL,1.33 ± 0.11
3,TFCFPWL,inactive
4,YRLPHS,inactive
5,RYLYTRNLDMTRTL,inactive
6,IRSDTVSTARPGNLTNC,inactive
7,WAYMVNFFRTNLICEGWFDG,-0.841 ± 2.5
8,AGQFPREQ,inactive
9,WNLYRFLNW,inactive
10,PCVYWSLNCSVVIIFSTRLL,inactive
11,GHIKWGNCSSYVSGFKLTCG,inactive
12,LVYVLDCRAKLTNYLISTLY,inactive
13,ANVARFMYSFVKQALSLWVR,inactive
14,WRRWQSRCGSLLRYSKETLN,inactive
15,NYKVRLNQDFENRHRYSMDT,inactive
16,AMEEDIYLTNDYTIIM,0.45 ± 0.39
17,LMFDVFLMSTFVFDNL,inactive
18,LHVFSECRFIRSLLGPNGIF,inactive
19,NWPGMLFNLSLVERRSWRRN,inactive
20,SRSINCFPMLILLVL,inactive
21,IMGALLTYSRTTGRVNYRMW,inactive
22,YLYRNRS,inactive
23,GQVYMSVRV,inactive

row,Substance,amyloid nucleation score
1,SYGVGWVYTEFGNLLRSFGL,inactive
2,LEESFSKNLSKSFYIQ,inactive
3,SKLCELLSLQTAVAYMMSGA,inactive
4,SVVEPRRTGTWNSTGVRSQH,inactive
5,RLSEFGVNVAQMWATVVTSL,inactive
6,NCFMSLASSNTR,inactive
7,LVVVR,inactive
8,FSCCITNPTYTYCWEMVGVS,inactive
9,GGLYKYKNRTRLFMSWRVSR,inactive
10,VRYFSKSGGRNPNVGRVVPV,inactive
11,MLNVINVYHVSSCGLRGNFE,2.63 ± 0.077
12,SKYKVCFTRSFF,inactive
13,VWLHNFLVMKLSMRNFGWVR,inactive
14,LLMFTFHYSPFS,0.483 ± 0.37
15,NYLFRT,inactive
16,YSGIAS,inactive
17,KKFGSYEWSRI,inactive
18,TWILFFVN,1.78 ± 0.062
19,SYGHLQILKVMAIPSYAFPK,inactive
20,QFYTDSFLHIIFSWCGPLDQ,inactive
21,ARWTMRAMLDWSIALSDHWV,inactive
22,LGHGFWQFSYLG,inactive
23,FGSLPRQIMCMPA,inactive

row,Substance,amyloid nucleation score
1,SPDTVPIGGSSGTNVYLCMH,inactive
2,FYDAWRIFLSYFRLSLLTNV,inactive
3,FRMNSLRVSLMESVCSSHT,1.1 ± 0.11
4,MQFLRYSLPSDNRLPGCFL,inactive
5,IFVWGNNLTMSLSVFNNA,2.58 ± 0.072
6,ISSYFNMCDLCVDVRHTYRR,inactive
7,SYMISPAVGKDRDM,inactive
8,MSMVFIVSCNDDIYTRAR,0.119 ± 0.24
9,HMSQYGRLCKMATLTFT,inactive
10,RILLNANRYTMPSGVYDHRA,inactive
11,TVNQKPY,inactive
12,VVYDVTVKKSLDIRFPLRIP,inactive
13,CDSWAYCRGCFRFML,-0.092 ± 1.1
14,PRGMPIAIFSDWCRLRWGVF,inactive
15,IPFRLFQNDSEKMSWSCDVT,inactive
16,NSRRCRNFASHRWPPEFRNS,inactive
17,WGCALCSYDACRLES,2.52 ± 0.068
18,RNMNLLSMHIGLISLFSGEL,1.81 ± 0.056
19,TISPFLINMFWLSCTLMSQE,0.558 ± 0.16
20,ISGEQRYSKCRT,inactive
21,YMLTEFYLFPDRILRHRRTD,inactive
22,LVNGTFNFSDHAESESCSHS,inactive
23,FSLTLCWHWSWVQCAGVPWG,2.05 ± 0.097

row,Substance,amyloid nucleation score
1,MRICFFDSIQHYQKNQD,2.1 ± 0.071
2,DDYYFG,inactive
3,SFCGLYVKFSVGYVVLIWGS,inactive
4,STYLGDVSLSFVRVWSVNGS,1.29 ± 0.078
5,PVVTVGYLDRMFISFLFSRI,inactive
6,MNWLSTTGECSILDISQ,inactive
7,GLKLCCV,inactive
8,ETVGAPRSLYYST,inactive
9,IHRNNNFFRRGYVWSYEEHH,inactive
10,YHMVCNCDWVGVAFYVSYGR,1.91 ± 0.065
11,LCVRFARMSGSAHLVESYVD,inactive
12,YDRVSMGRFIKR,inactive
13,VIILMVIVLYNRVSFETFSV,inactive
14,MRCGKSL,inactive
15,INLHFDITDWANNDLENKGH,inactive
16,LMLNGHAVHMSSNSEALVIC,inactive
17,CWFNPDPGLKWF,inactive
18,KCLKCKTGLCTMQGEYNRSY,-0.475 ± 0.88
19,IRLTVWDVNRDCR,inactive
20,CVVNLHSRIEARLLQIYRAV,inactive
21,YRDFDEDCVIL,inactive
22,GSSVVS,inactive
23,KWLMNSNFAWLI,inactive

row,Substance,amyloid nucleation score
1,VWCLFTSLSS,inactive
2,ANGLLSFSGRADGLQTNSGC,inactive
3,WNEAWWNNRLGLARMVVLLG,inactive
4,NWIVGSWCKVLSVVEKEW,0.101 ± 0.62
5,WVFRFRNQ,inactive
6,VRLYADNNLSAITKLLCPKN,inactive
7,RLIILNVFVSDNTNWLHRIH,1.37 ± 0.083
8,FLRCTRPPTASENIFRDINY,inactive
9,FGRVT,inactive
10,QDWEMVN,inactive
11,FGTMSSGYAGGNKKFHPHRY,inactive
12,CEMVCSTVIPIEVTSWLVMV,inactive
13,ETLYSCQKGGQRQRKAG,inactive
14,FVERTRKRVNVRRNRHVTET,inactive
15,NQSCFMSAGNGSF,inactive
16,YRWSPWYNYCSSWTWCQMST,1.51 ± 0.13
17,SHVNRVRSLYVGE,inactive
18,AVLCVCIHRLPFYFPPLLKM,inactive
19,AMVKEFWVDSRHFIDRYSKC,inactive
20,FTNNI,inactive
21,RFSCCYRPLLYNQKVEWWRG,inactive
22,YYYQNRYFELRHLPEFSS,inactive
23,IHSDLTVSCNIYWKSY,0.922 ± 0.14

row,Substance,amyloid nucleation score
1,ILHHTWYMF,inactive
2,RWRIEEPTI,inactive
3,ACLSFVYALYPLCLRLIS,inactive
4,LLDIC,inactive
5,RTVDSH,inactive
6,AVISKDCDSYAIYHHVFHST,inactive
7,VANIFVVISIVGVDTRLFIV,0.519 ± 0.23
8,NWKLPGFPNLVQRITTDSPL,inactive
9,RGGTASQVFMCFKLVFRSRY,-0.14 ± 0.6
10,SDKLSFSRDPSVMRVGQVQR,inactive
11,IHPPSGYPGSGLSLCCSKNS,inactive
12,GSPFYIFRVINLYT,2.93 ± 0.049
13,VIDFYVEPCLIYGAPPCWLH,0.606 ± 0.38
14,YLINPVEVD,inactive
15,IGTSAWLEKRASLLVCMKKA,inactive
16,RAPAMGL,inactive
17,VTSPFTPSI,-0.336 ± 0.63
18,SSMAVQRGGNYITMIYGH,inactive
19,YGRRMAHAGGVTGYGNLWCH,inactive
20,LLCYWSLA,inactive
21,SGQNKEQVVWMCTVRLPESS,inactive
22,SMDTE,0.734 ± 0.17
23,LKVLVD,inactive

row,Substance,amyloid nucleation score
1,SLYWSAMRKYNVVRTIYSRW,inactive
2,SISYINRKHTRNDTPRLRGV,inactive
3,VSRVTRLNKFISVVHDSCEV,inactive
4,RSRKKRCFLKFILKNFVWSV,inactive
5,KFGVLRLVFSTLVSTLSRMV,inactive
6,ILSSGLGKHTGLIIAYESAR,inactive
7,YRDRIGWQVVISII,-0.087 ± 0.27
8,VQFLRFQVHELFSRPFIA,inactive
9,DCGATSLKTMASGLRMKRTS,inactive
10,SIDLNGKG,inactive
11,VLSFLPCGLIPIISVALWCC,1.17 ± 0.099
12,ALMLDIFGRCTLRFRISGHG,inactive
13,MVVLRAVEQLGVRNNDYHS,inactive
14,LYMYLGRVCMWHLRCHKRYN,inactive
15,SKVRICKDKGWSG,inactive
16,GSYLQGMRCVADWDNGEQLR,1.97 ± 0.091
17,PLQNKASVRVGCWAML,inactive
18,RSQNF,inactive
19,FCALALTQMLINMAH,inactive
20,IGPIWVPYHMSIIRSLLFGI,inactive
21,RSVRFFVKMINFFASY,1.04 ± 0.15
22,WISNTRCVLFVGN,inactive
23,FNDNVVVVSDNVVRRITSKS,inactive
